Data: patent US20250326826A1 (CENTRO DE INGENIER A GEN TICA Y BIOTECNOLOG A, published 2025)

Legend:
GST-hVEGF121 [1] = biological target: T1, GST-hVEGF121 (human, UniProt P15692-9 27-147); experiment: ELISA, coated GST-hVEGF121
T1 construct: plate coating of the VEGF ELISAs; also called human VEGF; not shown: glutathione S-transferase (GST) fusion partner
T1 sequence (looked up): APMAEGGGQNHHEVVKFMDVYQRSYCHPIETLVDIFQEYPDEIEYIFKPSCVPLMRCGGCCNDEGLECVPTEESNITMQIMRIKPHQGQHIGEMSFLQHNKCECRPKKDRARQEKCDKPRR
Method: (§1) The 96-well plates were coated with 100 μL/well of a solution of GST-hVEGF121, GST-mVEGF120, or GST at a concentration of 20 μg/mL, or with a solution of VEGFKDR- at a concentration of 10 μg/mL, or hFGF-2 or mFGF-2 at a concentration of 5 μg/mL in 1×PBS for 16 hours at 4° C. After the plates were blocked with PBS-5% skim milk for one hour, 1:2 serial dilutions of the purified VHHs were added, starting at 2 μg/mL in PBS-0.5% skim milk. The plates were incubated for 1 hour at 37° C. and after several washes, the monoclonal antibody 9E10, specific for c-myc, was added. After one hour of incubation at 25° C. the plates were washed thoroughly. The binding of the fragment to the antigen in the solid phase was detected by the peroxidase activity using 100 μL/well of TMB. The reaction was stopped with 50 μL/well of stop solution, and absorbance values at 450 nm were determined in a microtiter plate reader.
(§2) The main characteristic of an antibody and its derived fragments is their recognition of the antigen, which determines their specificity and affinity. Specific binding to VEGF was evaluated as described in the section “ELISA for VHHs recognition of their target antigen” (Example 1). […] Nb-V1 also recognized a mutated variant of VEGF121 in the ELISA system where, in the so-called 80's loop, amino acids R82, K84 and H86 are replaced by E82, E84 and E86. […]

[2] = biological target: T2, CHO-VEGF (hVEGF121 produced in the CHO cell line) (human, UniProt P15692-9 27-147); experiment: competition ELISA, coated CHO hVEGF121, competitor biotinylated Bevacizumab
T2 construct: any tag is not described
T2 sequence (looked up): T1 sequence (looked up)
Method: (§3) Their displacement from their binding to VEGF could be an indication of the potentiality of the new polypeptides to mediate the desired effects in vivo. The ability of anti-VEGF VHH to compete with Bevacizumab antibody and CIGB166a antibody fragment for binding to its ligand was assessed by a variation of the solid phase ligand competition ELISA as described. 96-well plates (NUNC, Germany) were coated with 1 μg/mL hVEGF121, produced in the CHO cell line. Serial dilutions of purified VHHs were added, from 15,000 nM to 1,200 nM.
(§4) Biotinylated Bevacizumab or biotinylated-CIGB166a were then added, diluted in blocking solution to a final concentration of 2.3 ng/mL and 14.3 ng/ml, respectively. To detect the binding of biotinylated antibodies, streptavidin conjugated to HRP was added. The wells incubated with Biotinylated Bevacizumab or biotinylated-CIGB166a, without the addition of the antibody fragments, were taken as reference of maximum binding in the absence of competitor. In this assay, the Fc-VEGFR2 receptor chimera was used as a positive control. The percentage of inhibition of the binding of Bevacizumab, CIGB166a or VEGFR2 to its ligand was calculated as described above in the Example 1.

GST-hVEGF121 [3] = biological target: T1, GST-hVEGF121; experiment: ELISA, coated GST-hVEGF121, detection with anti-c-myc 9E10
Method: as §1, §2

GST-hVEGF121 [4] = biological target: T1, GST-hVEGF121; experiment: competition ELISA, coated GST-hVEGF, competitor Fc-VEGFR2
Method: (§5) The ability of VHHs to hinder receptors for binding to their ligand was assessed by ELISA, for which 96-well plates (NUNC, USA) were coated with GST-hVEGF or bFGF and blocked as described in the previous section. Serial 1:2 dilutions of the purified VHHs, from […] to […], were added and the plates and incubated for 1 h at 37° C. In this step, some wells were left where only PBS-milk was added. […] After 45 min incubation at 37° C., plates were washed with PBS-0.05% Tween. To detect receptor binding, HRP-conjugated anti-human IgG antibody was added, diluted 1:5000 in PBS-0.5% milk. After incubation for 1 h at 37° C., the plates were washed with PBS-Tween, and TMB was added. The reaction was stopped after 10 min. Wells incubated with the receptors without the addition of the antibody fragments were taken as reference for maximum binding in the absence of competitor. In this assay, in the case of inhibition of the VEGF/VEGFR axis, the CIGB166a antibody fragment was used as a positive control, and an anti-FGF polyclonal antibody was used for the FGF/FGFR axis. The percentage of inhibition of receptor binding to its ligand was calculated as follows: […]
The biological effect of VEGF is a consequence of its binding to two fundamental receptors (VEGFR1 and VEGFR2), so for a polypeptide that binds to VEGF to be effective in the therapeutic setting, it must block these interactions (Shibuya, Cell Structure and Function, 2001: 26: 25-35). The ability of Nb-V1 to compete with receptors 1 and 2 for binding to its ligand (VEGF) was assessed by solid phase ligand competition ELISA, as described above.

[5] = biological target: VEGF (soluble stimulus added to cell cultures); experiment: cell-based or functional assay
VEGF (soluble stimulus added to cell cultures), sequence (P15692 whole entry): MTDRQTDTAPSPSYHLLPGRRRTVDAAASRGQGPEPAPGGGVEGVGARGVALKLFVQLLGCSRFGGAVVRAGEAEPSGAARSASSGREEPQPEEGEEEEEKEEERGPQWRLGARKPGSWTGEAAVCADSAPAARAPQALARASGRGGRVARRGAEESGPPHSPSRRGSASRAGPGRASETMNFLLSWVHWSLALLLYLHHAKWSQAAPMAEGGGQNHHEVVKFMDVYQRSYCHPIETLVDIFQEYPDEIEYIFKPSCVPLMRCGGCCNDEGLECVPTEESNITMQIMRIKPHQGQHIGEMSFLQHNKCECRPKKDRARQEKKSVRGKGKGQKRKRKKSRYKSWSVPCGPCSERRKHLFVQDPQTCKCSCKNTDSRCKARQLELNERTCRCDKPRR

[6] = biological target: bFGF (soluble stimulus added to cell cultures); experiment: cell-based or functional assay
Recombinant human bFGF [7] = biological target: T3, Recombinant human bFGF (human, UniProt P09038 143-288, limits assumed); experiment: ELISA, coated antigen
T3 construct: Bought (Sigma); also called hFGF-2; human basic fibroblast growth factor
T3 sequence (P09038 143-288 limits assumed): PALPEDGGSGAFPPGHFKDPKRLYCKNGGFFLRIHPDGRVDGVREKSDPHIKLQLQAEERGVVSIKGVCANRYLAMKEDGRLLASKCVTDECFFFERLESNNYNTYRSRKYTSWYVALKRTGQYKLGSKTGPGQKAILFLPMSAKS
Method: (§6) After one hour of incubation at 25° C. the plates were washed thoroughly. The binding of the fragment to the antigen in the solid phase was detected by the peroxidase activity using 100 μL/well of TMB. The reaction was stopped with 50 μL/well of stop solution, and absorbance values at 450 nm were determined in a microtiter plate reader.
(§7) The main characteristic of an antibody and its derived fragments is their recognition of the antigen, which determines their specificity and affinity. Specific binding to VEGF was evaluated as described in the section “ELISA for VHHs recognition of their target antigen” (Example 1). […] Nb-V1 also recognized a mutated variant of VEGF121 in the ELISA system where, in the so-called 80's loop, amino acids R82, K84 and H86 are replaced by E82, E84 and E86. It shares this property with CIGB166a, but differentiates it from Bevacizumab.
(§8) Specific binding to bFGF was evaluated as described in the bFGF recognition ELISAs of the Example 1.

GST-hVEGF121 [8] = biological target: T1, GST-hVEGF121; experiment: ELISA, coated GST-hVEGF
Method: as §1

[9] = biological target: VEGF (soluble stimulus added to cell cultures); experiment: cell-based or functional assay; remark: listed apart in the source
[10] = biological target: T2, CHO-VEGF (hVEGF121 produced in the CHO …); experiment: competition ELISA, coated CHO hVEGF121, competitor biotinylated CIGB166a
Method: as §3, §4

[11] = biological target: Human VEGF (dendritic cell assay) (human, UniProt P15692-4 27-191, limits assumed); experiment: cell-based or functional assay
GST-mVEGF120 = biological target: T4, GST-mVEGF120 (mouse, UniProt Q00731-3 27-146); experiment: ELISA, coated GST-mVEGF120
T4 construct: Produced in E. coli; also called mouse VEGF; mouse growth factor; not shown: glutathione S-transferase (GST) fusion partner
T4 sequence (looked up): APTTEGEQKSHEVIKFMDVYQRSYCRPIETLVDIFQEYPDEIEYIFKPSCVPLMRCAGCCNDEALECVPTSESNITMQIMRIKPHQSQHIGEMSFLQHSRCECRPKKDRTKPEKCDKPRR
Method: as §1, §2

Recombinant human bFGF [12] = biological target: T3, Recombinant human bFGF; experiment: competition ELISA, coated bFGF, competitor Fc-FGFR1
Method: as §5

Recombinant human bFGF [13] = biological target: T3, Recombinant human bFGF; experiment: ELISA, coated human bFGF
Method: as §1
SEQ ID NO: 18 and SEQ ID NO: 19, and the bivalent Nb-VV6 and Nb-FF2, with sequences identified as SEQ ID NO: 20 and SEQ ID NO: 21, were expressed and purified as described in the Example 1. In all cases, the purity and identity of the proteins were verified by SDS-PAGE 12% and anti-polyhistidine Western Blot. […] The experimental mass of the polypeptides and the arrangement of the disulfide bridges were checked by ESI/MS-MS. The experimental and theoretical mass, for each polypeptide coincided, with errors less than 0.0015% in all cases, and the formation of intramolecular bridges between C22-C101 and C168-C247 was verified. […] The biological activity of the polypeptides was evaluated by ELISA for recognition of the VEGF and bFGF antigens, and by their ability to displace VEGF and bFGF binding to their respective VEGFR2 and FGFR1 receptors. […] Similarly, it was shown that the ability to displace the binding of antigens by their receptors was not affected.

GST-hVEGF121 [14] = biological target: T1, GST-hVEGF121; experiment: ELISA, coated antigen
Method: as §6, §7, §8

Mouse bFGF = biological target: T5, Mouse bFGF (mouse, UniProt P15655 10-154, limits assumed); experiment: ELISA, coated mouse bFGF
T5 construct: Bought (SinoBiological); also called mFGF-2
T5 sequence (P15655 10-154 limits assumed): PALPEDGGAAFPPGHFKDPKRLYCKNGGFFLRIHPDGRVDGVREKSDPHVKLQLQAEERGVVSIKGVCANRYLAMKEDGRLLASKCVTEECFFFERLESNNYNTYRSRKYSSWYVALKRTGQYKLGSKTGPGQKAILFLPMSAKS
Method: as §1
(§9) Specific binding to bFGF was evaluated as described in the bFGF recognition ELISAs of the Example 1. […] As in the case of Nb-V1, no recognition of GST or VEGF proteins was observed, thus reinforcing the evidence of the specificity of the binding of the Nb-F3 fragment to its antigen.

Recombinant human bFGF [15] = biological target: T3, Recombinant human bFGF; experiment: ELISA, coated human bFGF; remark: listed apart in the source
Method: as §1, §9

B1: Nb-V1 (VHH)
VHH: QVQLVESGGGLVQPGGSLRLSCAASGNSAEDRLYNSYTWFRQAPGQGLEAVAAISSHFSAGLTYYADSVKGRFTISRDNSKNTLYLQMNSLRAEDTAVYYCEITSHASHNDAWSTPRTVWGQGTLVTVSS
notes: carries the C-terminal c-myc tracer peptide and histidine tag; also called VHH Nb-V1
For B1, which “fold lower EC50 than Nb-E7” value (GST-hVEGF121 [1]) is on record?
The value was 3 fold.

And the IC50 [2]?
The IC50 was 931 nM.

And the EC50 (GST-hVEGF121 [3])?
Its EC50 is 4.73 nM.

And the IC50 (GST-hVEGF121 [4])?
The IC50 was 28.6 nM.

What about the “IC50, proliferation of HDMEC cells +VEGF (5 ng/ml)” value [5] of the same binder?
The value was 116 nM.

And the “IC50, proliferation of HDMEC cells +bFGF (10 ng/ml)” value [6]?
The value was > 6000 nM.

Does B1 bind (Recombinant human bFGF [7])?
Result: no binding

What about the EC50 (GST-hVEGF121 [8]) of the same binder?
The EC50 was 4.45 nM.

And the “PD1 expression (%) in CD8+ cells treated with VEGF, VHH 1 µg/mL” value [9]?
The value was 64%.

And the “PD1 expression (%) in CD8+ cells treated with VEGF, VHH 5 µg/mL” value [9]?
The value was 58%.

What about the “PD1 expression (%) in CD8+ cells treated with VEGF, VHH 10 µg/mL” value [9] of the same binder?
The value was 38%.

And the IC50 [10]?
Its IC50 is 67.5 nM.

What about the “CD86 (MFI) on dendritic cells +VEGF +LPS, VHH 1 µg/mL” value [11] of the same binder?
Its value is 1560 MFI.

And the “CD86 (MFI) on dendritic cells +VEGF +LPS, VHH 5 µg/mL” value [11]?
Its value is 3000 MFI.

And the “CD86 (MFI) on dendritic cells +VEGF +LPS, VHH 10 µg/mL” value [11]?
Its value is 17200 MFI.

And the “MHCII (MFI) on dendritic cells +VEGF +LPS, VHH 1 µg/mL” value [11]?
Its value is 4700 MFI.

What about the “MHCII (MFI) on dendritic cells +VEGF +LPS, VHH 5 µg/mL” value [11] of the same binder?
The value was 5200 MFI.

What about the “MHCII (MFI) on dendritic cells +VEGF +LPS, VHH 10 µg/mL” value [11] of the same binder?
Its value is 17000 MFI.

And the EC50 (GST-mVEGF120)?
Its EC50 is 4.08 nM.

B2: Nb-F3 (VHH)
VHH: QVQLVESGGGLVQPGGSLRLSCAASGTEDGRLLTLGGSWFRQAPGQGLEAVAAIGAGDRGGATYYADSVKGRFTISRDNSKNTLYLQMNSLRAEDTAVYYCTALYERQPQLAATKVARKWGQGTLVTVSS
notes: carries the C-terminal c-myc tracer peptide and histidine tag; also called VHH Nb-F3
For B2, which IC50 (Recombinant human bFGF [12]) is on record?
Its IC50 is 134 nM.

And the EC50 (Recombinant human bFGF [13])?
The EC50 was 11.3 nM.

And the “IC50, proliferation of HDMEC cells +VEGF (5 ng/ml)” value [5]?
Its value is > 6000 nM.

And the “IC50, proliferation of HDMEC cells +bFGF (10 ng/ml)” value [6]?
The value was 121 nM.

Does B2 bind (GST-hVEGF121 [14])?
Result: no binding

And the EC50 (Mouse bFGF)?
The EC50 was 11.5 nM.

And the “fold increase in recognition against Nb-A5” value (Recombinant human bFGF [15])?
Its value is 5 fold.
